Experimental data taken from PMC3640046, “Structural Insights into a Wildtype Domain of the Oncoprotein E6 and Its Interaction with a PDZ Domain” (PLoS ONE, 2013).
Like-named read-outs stand apart in the source and are kept apart here. Residues, ends and D or L forms follow the SMILES beside them. No end group written: not given here.

How the values were obtained:
[1] = format: physicochemical; conditions: N-terminal His6-tag, E. coli BL21(DE3), 20 °C overnight expression with 10 µM Zn2+; cell extract in lysis buffer pH 7.3; centrifugation 10,000 x g, 4 °C, 30 min; Coomassie stained SDS-PAGE
Procedure: Assessment of solubility of amino-terminally His6-tagged, recombinant E6 constructs derived from the high-risk types 16, 18, 26, 31, 45, 51, 59 and 97 as well as for the non-tumorigenic cutaneous type 1a was performed after bacterial expression in presence of 10 µM of Zn^2+ as solubility of E6 constructs is dependent on low µM concentrations of zinc. None of the wild-type sequence full-length E6 constructs nor their respective N-terminal zinc-binding domain (ZBD) turned out to be soluble (Table S1). […] The soluble constructs are denoted as E6Z2 (e.g. 51Z2 stands for the second, i.e. C-terminal, ZBD of HPV 51 E6). […]

hDlgPDZ2 [2] = molecular target: T1, hDlgPDZ2 (Homo sapiens, UniProt Q12959); experiment: Surface plasmon resonance (SPR) of hDlgPDZ2 with E6-derived peptides; format: binding; conditions: for kon: read-out: ka
T1 construct: host or cells: E. coli BL21 (DE3)
Procedure: Figure 5 51Z2 derived E6CT6 peptide versus E6CT11 peptide binding to hDlgPDZ2. SPR data. A E6CT6, B E6CT11. Sensorgrams of E6CT6 and E6CT11 binding injected in triplicate (black lines) are shown overlaid with the best fit derived from a 1∶1 interaction model including a mass transport term (orange lines). Peptide concentrations of 3.125, 6.25, 12.5, 25, 50, 100 and 200 µM are shown. The binding parameters were obtained by kinetic analysis of association and dissociation phases (left panels) or by steady state analysis (right panels) utilizing signals of plateaus depicted in the corresponding left panel.
A detailed description of methods is provided in Text S1. Briefly, recombinant proteins were generated in E. coli BL21 (DE3). Cells were disrupted and protein solubility in cell-lysates was assessed. Soluble proteins were FPLC-purified and initially characterized by CD spectroscopy, dynamic light scattering, gel filtration chromatography and NMR spectroscopy. The affinity of E6-derived peptides to hDlgPDZ2 was elucidated utilizing Surface Plasmon Resonance. hDlgPDZ2 was generated by bacterial expression and FPLC purification. The generation of the labeled E6CT11 peptide was performed as previously described. The purified, monomeric 51Z2 and the purified, monomeric hDlgPDZ2 in complex with purified E6CT11 were subsequently structurally characterized by standard solution state NMR techniques.
[1H-‐15N]-‐HSQC-‐spectra

hDlg = conditions: in vitro degradation assay; cited from earlier work
Text: One PDZ domain containing protein targeted by E6 for degradation in vivo is the multi-domain protein hDlg (human Dlg/hDlg1/SAP-97). […] Human Dlg is part of the Scribble polarity complex that controls basolateral polarity and it is required for adherens junction formation and differentiation of epithelial cells. Human Dlg is expressed in human keratinocytes and localizes to nuclear, cytoplasmic, membrane-associate ...

hDlgPDZ2 [3] = molecular target: T1, hDlgPDZ2; conditions: cited from earlier work
Text: 51Z2 contains a carboxy-terminal PDZ-BM and the full-length protein causes the degradation of hDlg in vitro [32].

[4] = molecular target: T2, second PDZ domain of human Dlg (hDlg/hDlg1/SAP-97) (human, UniProt Q12959 318-406, 15N labelled in the titrations with the peptides); experiment: NMR titration; [1H,15N]-HSQC of 100 µM 15N labeled 51Z2 without or with 3 fold excess of unlabeled hDlgPDZ2; slow exchange on the NMR time scale; conditions: both partners purified
T2 construct: also called hDlgPDZ2; PDZ domain 2 of hDlg; source: bacterial expression, FPLC purification

[5] = molecular target: T3, second PDZ domain of human Dlg (hDlg/hDlg1/SAP-97) (human, UniProt Q12959 318-406, 15N labelled in the titrations with the peptides); experiment: SPR; kinetic analysis
T3 chain: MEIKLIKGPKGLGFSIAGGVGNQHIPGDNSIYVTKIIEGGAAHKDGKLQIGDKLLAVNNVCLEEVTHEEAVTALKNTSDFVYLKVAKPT

[6] = molecular target: T2, second PDZ domain of human Dlg …; experiment: SPR; peptides injected in triplicate at 3.125, 6.25, 12.5, 25, 50, 100 and 200 µM; kinetic analysis (1:1 interaction model with a mass transport term) and steady state analysis; conditions: both partners purified
[7] = kinetic analysis, 1:1 interaction model including mass transport term, 25 °C, pH 7.4
[8] = kinetic analysis, 1:1 interaction model including mass transport term, Biacore 2000, 25 °C, His6-tagged hDlgPDZ2 on NTA chip, peptide 3.125-200 µM, 150 mM NaCl, 10 mM HEPES, 3 mM EDTA, 0.005% polysorbate 20, pH 7.4, injected in triplicate, read-out: KD (kinetic analysis)

18 E6FL: full-length HPV 18 E6, His6-tagged
solubility of recombinant E6 construct [1]: Insoluble

CC(=O)N[C@@H](CCCNC(=N)N)C(=O)N[C@@H](CC(N)=O)C(=O)N[C@@H](CCC(=O)O)C(=O)N[C@H](C(=O)N[C@@H](CCC(N)=O)C(=O)N[C@H](C(=O)O)C(C)C)[C@@H](C)O [E6CT6, Ac-RNETQV] (Ac-RNETQV-OH)
kon (hDlgPDZ2 [2]; [7]): 54000 M⁻¹ s⁻¹
Kd (hDlgPDZ2 [2]; [8]): 28.42 ± 0.05 µM

CC(=O)N[C@@H](CCC(N)=O)C(=O)N[C@@H](CCCNC(=N)N)C(=O)N[C@H](C(=O)N[C@@H](CCCNC(=N)N)C(=O)N[C@@H](CCC(N)=O)C(=O)N[C@@H](CCCNC(=N)N)C(=O)N[C@@H](CC(N)=O)C(=O)N[C@@H](CCC(=O)O)C(=O)N[C@H](C(=O)N[C@@H](CCC(N)=O)C(=O)N[C@H](C(=O)O)C(C)C)[C@@H](C)O)[C@@H](C)O [E6CT11, Ac-QRTRQRNETQV] (Ac-QRTRQRNETQV-OH)
Kd (hDlgPDZ2 [2]; SPR, 25 °C, pH 7.4, read-out: Kd): < 10 µM
kon (hDlgPDZ2 [2]; [7]): 104000 M⁻¹ s⁻¹
Kd (hDlgPDZ2 [2]; [8]): 9.79 ± 0.03 µM
Kd (hDlgPDZ2 [2]; steady state analysis utilizing signals of plateaus, Biacore 2000, 25 °C, His6-tagged hDlgPDZ2 on NTA chip, peptide 3.125-200 µM, 150 mM NaCl, 10 mM HEPES, 3 mM EDTA, 0.005% polysorbate 20, pH 7.4, injected in triplicate, read-out: KD (steady state analysis)): 9.63 ± 0.02 µM

HPV 18 E6: E6 oncoprotein of high-risk HPV 18
E6 dependent reduction of hDlg levels (hDlg): reduction of hDlg levels
interaction with hDlgPDZ2 (hDlgPDZ2 [3]): interact with hDlgPDZ2

B1: second (C-terminal) zinc-binding domain of HPV 51 E6 (domain or fragment)
chain: GSHMSRSVYGTTLEAITKKSLYDLSIRCHRCQRPLGPEEKQKLVDEKKRFHEIAGRWTGQCANCWQRTRQRNETQV
modifications: 15N labelled in the titration with hDlgPDZ2; binds one zinc ion
notes: source: E. coli BL21 (DE3), FPLC-purified
binding result [4]: binds

Ac-RNETQV (also called E6CT6 peptide) [E6CT6, N-terminally truncated 6mer peptide of the HPV 51 E6 C-terminus (Ac-RNETQV)]
koff [5]: 1.53 s⁻¹
Kd [6]: 28.3 µM

B2: 45 E6FL: full-length HPV 45 E6, His6-tagged (protein, UniProt P21735 1-158, looked up)
chain: MARFDDPKQRPYKLPDLCTELNTSLQDVSIACVYCKATLERTEVYQFAFKDLCIVYRDCIAYAACHKCIDFYSRIRELRYYSNSVYGETLEKITNTELYNLLIRCLRCQKPLNPAEKRRHLKDKRRFHSIAGQYRGQCNTCCDQARQERLRRRRETQV
modifications: full-length His6 tag
notes: full-length HPV 45 E6, His6-tagged
solubility of recombinant E6 construct [1]: Insoluble

B3: 31 (co) E6FL: full-length HPV 31 E6, His6-tagged (protein, UniProt P17386 1-149, looked up)
chain: MFKNPAERPRKLHELSSALEIPYDELRLNCVYCKGQLTETEVLDFAFTDLTIVYRDDTPHGVCTKCLRFYSKVSEFRWYRYSVYGTTLEKLTNKGICDLLIRCITCQRPLCPEEKQRHLDKKKRFHNIGGRWTGRCIACWRRPRTETQV
modifications: full-length His6 tag
notes: full-length HPV 31 E6, His6-tagged
solubility of recombinant E6 construct [1]: Insoluble

B4: E6CT11, 11mer peptide representing the complete disordered C-terminus of HPV 51 E6 (Ac-QRTRQRNETQV) (peptide)
peptide: Ac-QRTRQRNETQV
notes: HPV 51 E6 residues 141 to 151; also called E6CT11 peptide
koff [5]: 1.01 s⁻¹
Kd [6]: 9.6 µM
fold change of the association rate against E6CT6 [6]: ~2 fold

B5: 16 (co) E6FL: full-length HPV 16 E6, His6-tagged (protein, UniProt P03126 1-158, looked up)
chain: MHQKRTAMFQDPQERPRKLPQLCTELQTTIHDIILECVYCKQQLLRREVYDFAFRDLCIVYRDGNPYAVCDKCLKFYSKISEYRHYCYSLYGTTLEQQYNKPLCDLLIRCINCQKPLCPEEKQRHLDKKQRFHNIRGRWTGRCMSCCRSSRTRRETQL
modifications: full-length His6 tag
notes: full-length HPV 16 E6, His6-tagged
solubility of recombinant E6 construct [1]: Insoluble

B6: HPV 16 E6: E6 oncoprotein of high-risk HPV 16 (protein, UniProt P03126 1-158, looked up)
Protein E6: B5 chain
E6 dependent reduction of hDlg levels (hDlg): reduction of hDlg levels
interaction with hDlgPDZ2 (hDlgPDZ2 [3]): interact with hDlgPDZ2
